From paper PMC2559947 come the findings set out here.

“And” between values parts separate entries of the source, which are not always exact repeats. Identical values can stand only once.

Test [1] concerns the target C326A pea porphobilinogen synthase (pea (Pisum sativum)). Briefly: native gel or EMSA. (In general: A gel shift assay detects complexes by their altered migration in electrophoresis.)
Test [2] has the same target. Briefly: AUC.
The target is the same in test [3]. Briefly: AUC. This is another data set of the same source.
For test [4] the target is unchanged. Briefly: AUC. The source holds these as a separate data set.

Turning to “C326A pea porphobilinogen synthase (enzyme)”, the stoichiometry N in test [1] is 8; in test [2] it was 8; in test [3], 6 and 8; in test [4] it was 8 and 6.

One may read the stoichiometry N as a count of units in the complex or per binding partner.
